Holding throughout (experiment): BLI
Conditions in all cases: BLI: 20 mM Tris-HCl pH 7.4, 80 mM NaCl, temperature not stated; pull-down: 20 mM Tris-HCl pH 7.5, 300 mM KCl, 0.2 mM EDTA, 0.5 mM DTT, 5 ug/ml poly(I.C) …

In series [1] the test system is T1, RBM45 RRM2-HOA (domain 2-HOA), Q8IUH3-3.
T1 sequence: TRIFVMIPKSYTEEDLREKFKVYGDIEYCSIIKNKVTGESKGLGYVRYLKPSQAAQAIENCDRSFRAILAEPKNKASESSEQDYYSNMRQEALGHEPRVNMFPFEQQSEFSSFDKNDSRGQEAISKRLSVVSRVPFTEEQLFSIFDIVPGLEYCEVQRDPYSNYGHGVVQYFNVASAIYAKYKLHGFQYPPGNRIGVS

In series [2] the test system is T2, RBM45 domain 2-3, Q8IUH3-3.
T2 sequence: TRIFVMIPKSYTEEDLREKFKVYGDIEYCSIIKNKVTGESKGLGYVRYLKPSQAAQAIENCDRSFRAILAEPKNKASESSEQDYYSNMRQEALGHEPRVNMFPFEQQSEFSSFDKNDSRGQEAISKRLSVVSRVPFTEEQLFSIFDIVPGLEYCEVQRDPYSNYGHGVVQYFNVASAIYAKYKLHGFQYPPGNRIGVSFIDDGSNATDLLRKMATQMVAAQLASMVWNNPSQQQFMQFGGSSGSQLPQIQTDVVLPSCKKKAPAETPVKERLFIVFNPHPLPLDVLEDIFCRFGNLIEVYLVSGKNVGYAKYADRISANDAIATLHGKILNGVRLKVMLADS

In series [3] the test system is T3, RBM45 aa 2-257 as printed, Q8IUH3-3.
T3 sequence: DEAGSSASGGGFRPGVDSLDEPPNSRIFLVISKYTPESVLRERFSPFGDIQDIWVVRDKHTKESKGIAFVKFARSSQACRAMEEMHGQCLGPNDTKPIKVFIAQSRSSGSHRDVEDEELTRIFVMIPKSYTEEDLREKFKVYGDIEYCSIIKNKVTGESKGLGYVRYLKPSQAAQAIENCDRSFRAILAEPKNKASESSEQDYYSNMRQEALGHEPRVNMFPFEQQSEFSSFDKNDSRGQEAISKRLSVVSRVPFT

This passage reports Kd results from article PMC7064759.

As a reminder, the Kd is the equilibrium constant for the complex coming apart. Take GUAAAGCUACGGGACGGU [ISE3]: the Kd was determined as 21.3 nM in series [1], 21.8 nM in series [2] and 43 nM in series [3].
